Data taken from patent publication US20210371537A1 (MERRIMACK PHARMACEUTICALS, published 2021).

T1: human TNFR2 on GloResponse NF-kB-RE-luc2p HEK293 reporter cells (human, UniProt P20333 23-461)
T1 sequence: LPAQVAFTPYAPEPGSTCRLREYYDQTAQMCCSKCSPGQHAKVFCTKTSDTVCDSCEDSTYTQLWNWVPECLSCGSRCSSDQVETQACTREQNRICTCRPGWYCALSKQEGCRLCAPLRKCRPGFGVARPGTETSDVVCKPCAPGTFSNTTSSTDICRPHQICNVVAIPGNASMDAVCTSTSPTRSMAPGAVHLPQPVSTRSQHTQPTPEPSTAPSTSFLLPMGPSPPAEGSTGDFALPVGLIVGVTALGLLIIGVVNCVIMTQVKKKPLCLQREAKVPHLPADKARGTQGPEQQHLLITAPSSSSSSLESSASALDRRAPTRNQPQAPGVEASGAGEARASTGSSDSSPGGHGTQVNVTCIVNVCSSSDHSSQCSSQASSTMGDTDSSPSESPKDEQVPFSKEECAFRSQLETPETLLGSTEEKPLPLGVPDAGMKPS

T2: human TNFR2-His (human, UniProt P20333 23-257)
T2 construct: not shown: His tag
T2 sequence: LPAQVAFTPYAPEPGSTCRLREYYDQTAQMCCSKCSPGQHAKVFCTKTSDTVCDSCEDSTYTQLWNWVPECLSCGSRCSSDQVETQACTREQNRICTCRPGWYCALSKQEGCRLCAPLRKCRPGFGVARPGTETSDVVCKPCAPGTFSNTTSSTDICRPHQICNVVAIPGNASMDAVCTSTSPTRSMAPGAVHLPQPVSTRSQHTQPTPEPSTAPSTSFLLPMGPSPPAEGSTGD


Columns and labels:
[1] = target: his-tagged mouse TNFR2 (mouse) (UniProt P25119); experiment: blocking ELISA: His-tagged mouse TNFR2 coated, antibody titrated, then recombinant mouse TNF-alpha added and detected; OD450 normalized
Chain of his-tagged mouse TNFR2 (mouse) (P25119 23-258 limits assumed): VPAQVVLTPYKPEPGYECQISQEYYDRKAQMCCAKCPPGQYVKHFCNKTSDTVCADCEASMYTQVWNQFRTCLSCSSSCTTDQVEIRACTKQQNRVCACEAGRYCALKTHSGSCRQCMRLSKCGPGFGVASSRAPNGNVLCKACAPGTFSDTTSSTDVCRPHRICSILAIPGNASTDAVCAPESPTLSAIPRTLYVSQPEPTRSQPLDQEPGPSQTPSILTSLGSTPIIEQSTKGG

[2] = target: T1, human TNFR2 on GloResponse …; experiment: cell-based or functional assay
human TNFR2-His = target: T2, human TNFR2-His; experiment: BLI, antibody on anti-Human Fc Capture (AHC) biosensors, human TNFR2-His in solution
Protocol: Binding affinities for human TNFR2 of the affinity-matured anti-human TNFR2 antibodies generated in Example 30 were measured by bio-layer interferometry (BLI). Briefly, a BLI kinetic assay was performed using anti-Human Fc Capture (AHC) biosensors (ForteBio) under the following conditions: (a) loading of antibody (4 μg/mL) for 60 sec, (b) baseline for 60 sec, (d) association with human TNFR2-His ([…]) for 300 sec, and (e) dissociation for 300 sec.

Molecule	IC50 (read off the curve) [1]	EC50 in stimulating NF-kB activity [2]	Kd (human TNFR2-His)	EC50 of induced NF-kB activity [2]
54.7 (Bioxcell) (antibody)	2 nM	–	–	–
ABV2 chimera (ABV2c) (antibody, human IgG1, kappa, V domains shown, VH and VL of mouse ABV2 fused with human IgG1 and human kappa constant regions; also called ABVc; chimeric anti-human TNFR2 antibody) VH: QIQLVQSGPELKKPGETVKISCKASGYTFTTFGMSWVKQAPGKGLKWMGWINTYSGVPTYADDFKGRFAFSLETSASTAYLQINNLKNEDTATYFCARRSNFAYWGQGTLVTVSA VL: DIVLTQSPASLAVSLGQRATISCRASESVDSSGNSFMHWYQQKAGQSFKLLIYRASNLESGIPARFSGSGSRTDFTLTINPVEADDVATYYCQQSNEDPWTFGGGTKLEIKR	–	8.6 µg/mL	0.689 nM	–
ABV2.7 (antibody, human IgG1, kappa, V domains shown) VH: QVQLVQSGSELKKPGASVKVSCKASGYTFTTFGMSWVRQAPGQGLEWMGWINTYSGVPTYAQGFTGRFVFSLDTSVSTAYLQISSLKAEDTAVYFCARRSNFAYWGQGTLVTVSS VL: DIVLTQSPDSLAVSLGERATINCRASESLTASGNSFMHWYQQKPGQPPKLLIYRASNLESGVPDRFSGSGSRTDFTLTISSLQAEDVAVYYCQQSRHVNWTFGGGTKVEIKR	–	10.8 µg/mL	0.3 nM	–
ABV2.15 (antibody, human IgG1, kappa, V domains shown) VH: QVQLVQSGSELKKPGASVKVSCKASGYTFTTFGMSWVRQAPGQGLEWMGWINTYSGVPHYAQGFTGRFVFSLDTSVSTAYLQISSLKAEDTAVYFCARRSNFAYWGQGTLVTVSS VL: DIVLTQSPDSLAVSLGERATINCRASESLTASGNSFMHWYQQKPGQPPKLLIYRASNLESGVPDRFSGSGSRTDFTLTISSLQAEDVAVYYCQQSRHVNWTFGGGTKVEIKR	–	9.3 µg/mL	0.158 nM	5.3 µg/mL
ABV2.13 (antibody, human IgG1, kappa, V domains shown) VH: QVQLVQSGSELKKPGASVKVSCKASGYTFTTFGMSWVRQAPGQGLEWMGWINTYSGVPHYAQGFTGRFVFSLDTSVSTAYLQISSLKAEDTAVYFCARRSNFAYWGQGTLVTVSS VL: DIVLTQSPDSLAVSLGERATINCRASQTVDSSGNSFMHWYQQKPGQPPKLLIYLGNRLESGVPDRFSGSGSRTDFTLTISSLQAEDVAVYYCQQSNEDPWTFGGGTKVEIKR	–	4.1 µg/mL	1.59 nM	–
ABV2.1 (ABV2 hum #2 HD3) (antibody, V domains shown, humanized ABV2; also called parental antibody) VH: QVQLVQSGSELKKPGASVKVSCKASGYTFTTFGMSWVRQAPGQGLEWMGWINTYSGVPTYAQGFTGRFVFSLDTSVSTAYLQISSLKAEDTAVYFCARRSNFAYWGQGTLVTVSS VL: DIVLTQSPDSLAVSLGERATINCRASESVDSSGNSFMHWYQQKPGQPPKLLIYRASNLESGVPDRFSGSGSRTDFTLTISSLQAEDVAVYYCQQSNEDPWTFGGGTKVEIK	–	–	4.42 nM	1.6 µg/mL
